Reference: a protein production outcome set (Wang et al. 2014)

Assay: label from the status in PepcDB records

Sequence: VLESVRKEWLEIMDRELLEKARSLINANYISTTLSTVDRNYEVNIAVISVLEMIGDDTIICARFGADKTYANLKETGKGVFMVLLTDNDKSKDGIRVYVELSADLQEGEYFDRIKKRLDNTTYKNFPLKNCLVFKIVKILPVSLLRK
- protein production: not failed

Sequence: MTSLNVLVAVCMAYVILLFGVAFAADRLSSTGRTTWLRSPLVYTLSLSIYCTAWTFYGAVGYAARSGLEFVTIYLGPTLVMIGWWWGLRKLVRVGRSQRVTSIADLISSRYGKSNTLAVCVTLLAVIGVTPYIALQLQSITLSFDIFAEADPVSRPGEGSSAFWVACGLAVFAILFGTRNLDANERHHGVVTAVAIEAVVKLVALLAVGVFVVWGIAGGLGDTLARIDASEIGVWQVDHGRWATITFLAAAAFVCLPRMFQVMVVENDDERHLRTAAWAFPLYLMLMSLFVVPIAVVGLELMPEGANPDLFVLTIPLAEGQETLAMLSFLGGFSSATSMVIVAAMALSTMVSNHIVMPIWLNAQGSGASVSGDVRSVVLYARRVSIAVILALGYFYYRLSGGGAALASIGLIAFAGIAQILPALVGGLFWRGATRTGALVGLTVGFVLWLYTLLLPGMGAGVIAPQVMEHGLFGLSWLRPQALFGIAGMDPMVHSVMWSLSLNTAAFCIASLLSFPSPLERLQGAQFVNVFDHSAGPRGWTGSVAQSEDLMIMSQRIMGAREAQEFFQSEAMAQGSRAYLPEPTPAFLERLERELSGSVGAATAHAMIGQIVGGSSVSVEDLLAVADESAQLLEYSSRLEAKSAELSRTARKLREANEKLTQISLQKDAFLSQISHELRTPMTSIRAFSEILRDTDGLAPVDKTRYAAIIHDEALRLTRLLDDLLDLSVLENGQVTLNMGQGRLVDVLDRAMATALTGTDRPLRVRRHRGAERIVLRTDLDRLSQVFINLITNAQKYCDAADPELSVTVHDVGGRIVVDLIDNGSGIPRDARKMVFEKFARVGAEKAGGAGLGLAICREIMQRLGGDISYLSGQEGGAFRVSLPVGMEIAAQ
- protein production: failed

Sequence: MIRAAAKFSREAAATIRGRTISVRGNLIRYSTPLRLIHGEISVPNANHVAIQMVNYALSHARSQKSDESYAQGMLVLEQCLGNQPNDDQVSHDSKATVLLAMSDLLYESGNSSEAIERLKQVMTLTHSSLAIRVVAVEALVGLLIQSGQDDASLDVADEFLKLVKESGHENLQGVVATVKAIKGLAELVKGNIESAESLFRGLENHESCKGNIALSYGEYLHATGNFELAKEMYQKAIQGVTETKESMCSCNMNLKAVSLAATFALGQLESHIGNFGVAEKTLTDALTKTEEHYGDNHPKVGVILTAVALMYGNKAKQERSSSILIQEGLYRKALELMKAPPLDSKGIINMENQEVIALARAGYAELLLIQENRKSEGEKMKSWAESAWRNKRISLSEALTLSEPLGKVAIIDARTTRVL
- protein production: failed

Sequence: MKPEHRMDTISKLEEGAETPVTGRVMKISSPRTFTTRKGREGKLANVIIADDTGELRAVFWTENIKLLKKFREGDVIRIKDVNIRGGFGGRKEAHLMPRSTVEVLDPLEHHHHHH
- protein production: not failed

Sequence: MLIERIYDEDLAQASYFIGCQAHNTAVVVDPRRDIAVYLDMAKKNGMEIVGVTETHIHADYLSGTRELAAATNATMYVSGEGGADWQYEFDAERICDGSEIRLGNLVLTAVHTPGHTPEHLSFLLKDGAFADEPGFMLTGDFVFAGDLGRPDLLDEAAGGVDTRFEGARQMFKSLKEKFLTLPDHIQIFPGHGSGSACGKALGSVPSTTLGYERQFAWWGKYLEADDEQGFIDELLEGQPDAPAYFGRMKRQNRQGPAIMGARELLPQLEASDLHDVIVVDTRSADEVHQGTVAGAVNIPAGNSMAKFGSWTVDPEKDSRALVLLAASQIGAMEMWDHMVRVGIDNVAGFITNFDGVDLVAPQTVSPDQLDELEYDLLLDVRNRSEVEEGYIPGALHINGASVLWNLEKLPRDGKIVSYCKSGTRSSIAASTLRNAGFDVVELQGSYDNWVRHNAQLEHHHHHH
- protein production: not failed

Sequence: MTEIDSNLKDAQSVAVSGHVRPDGDCVGSTLAVYNYIKDYYPDIKARLYLEPSPNIFKFMQRADEIDSSYADDTVYDLFIACDCSDTGRLGSAAKYFESAKRTLCIDHHVTNGAFADTNYIFPDASSTCELVFELLPKERITIQIAECIYTGMVHDTGVFQYSCTSKKTMDIAGSLMEMGIDYSRIIDDTFYTKTFAQNKIMGQALLNAALYLNGDVILSAVSRAEMEKYDVLPKHLDGIVNQLRVTKDIKVAVFLYENEDGTYKGSLRVNGDYDVAKVASVFGGGGHVKAAGFTIEGPLEVATDRILTAIKDNI
- protein production: failed

Sequence: MPPVPGVPFRNVDNDSPTSVELEDWVDAQHPTDEEEEEASSASSTLYLVFSPSSFSTSSSLILGGPEEEEVPSGVIPNLTESIPSSPPQGPPQGPSQSPLSSCCSSFSWSSFSEESSSQKGEDTGTCQGLPDSESSFTYTLDEKVAELVEFLLLKYEAEEPVTEAEMLMIVIKYKDYFPVILKRAREFMELLFGLALIEVGPDHFCVFANTVGLTDEGSDDEGMPENSLLIIILSVIFIKGNCASEEVIWEVLNAVGVYAGREHFVYGEPRELLTKVWVQGHYLEYREVPHSSPPYYEFLWGPRAHSESIKKKVLEFLAKLNNTVPSSFPSWYKDALKDVEERVQATIDTADDATVMASESLSVMSSNVSFSE
- protein production: failed

Sequence: MINEIGHYVLVLALGVGLIVSTLPVIGARRNDRALMDVASLGSVLMFLLVGFSFAALTHAYAVSDFSVRNVWENSHSLMPMLYKLTGVWGNHEGSMLLWLLILVFFSALVAAFGGNLPETLKANVLAVQAWISVAFLLFILLTSNPFLRLERVPAEGQDLNPILQDFGLAIHPPLLYLGYVGFSVCFSFAVAALLEGRIDAAWARWVRPWTLAAWTFLTAGISMGSYWAYYELGWGGWWFWDPVENASFMPWLAGTALLHSALVMEKREALKIWTVLLAIMTFSLSLLGTFLVRSGVLTSVHAFATDPSRGIFILGILTIFIGGAFALFAWRAPSLKAGGLFAPISREGALVLNNLILTVSTATVLIGTLYPLILETLTGEKISVGAPFFNLTFGLLMIPVLIVTPFGPMLAWKRGDLLGAFQRLYVAAAIAALAGLTLWYIENGGPVLAALGIAAGFWLIFGALTDLWYRANFGKLAFGIAFRRLKGLPRSAFGTALAHMGLGITVLGIVIVTTYETETVLEMKQGTVAEAGGYSLTFDGIRHAVGPNFTEDRGHFTVRKAGVEVADVWSSKRLYTARRMPTTEAGILTFGLSQLYVSLGDPMADGGMVVRIWWKPFILCIWGGTLFMMAGGFISLSDRRLRVGAPTRKAKPVRAAMPEAAE
- protein production: failed

Sequence: MSEENKIGTYQFVAEPFHVDFNGRLTMGVLGNHLLNCAGFHASDRGFGIATLNEDNYTWVLSRLAIELDEMPYQYEKFSVQTWVENVYRLFTDRNFAVIDKDGKKIGYARSVWAMINLNTRKPADLLALHGGSIVDYICDEPCPIEKPSRIKVTSNQPVATLTAKYSDIDINGHVNSIRYIEHILDLFPIELYQTKRIRRFEMAYVAESYFGDELSFFCDEVSENEFHVEVKKNGSEVVCRSKVIFE
- protein production: not failed

Sequence: SERYAAALEEVADGARQQERHYQLLSALQSLVKELPSSFQQRLSYTTLSDLALALLDGTVFEIVQGLLEIQHLTEKSLYNQRLRLQNEHRVLRQALRQKHQEAQQACRPHNLPVVQAAQQRELEAVEHRIREEQRAMDQKIILELDRKVADQQSTLEKAGVAGFYVTTNPQELMLQMNLLELIRKLQQRGCRAGNAALGLGGPWQSPAAQCDQKGSPVPP
- protein production: not failed

Sequence: MIGKPRGRRGVNLQILPSAMTVLSICAGLTAIKFALEHQPKAAMALIAAAAILDGLDGRVARILDAQSRMGAEIDSLADAVNFGVTPALVLYVSMLSKWPVGWVVVLLYAVCVVLRLARYNALQDDGTQPAYAHEFFVGMPAPAGAVSMIGLLALKMQFGEGWWTSGWFLSFWVTGTSILLVSGIPMKKMHAVSVPPNYAAALLAVLAICAAAAVLAPYLLIWVIIIAYMCHIPFAVRSQRWLAQHPEVWDDKPKQRRAVRRASRRAHPYRPSMARLGLRKPGRRL
- protein production: failed

Sequence: MEYQHWLREAISQLQASESPRRDAEILLEHVTGRGRTFILAFGETQLTDEQCQQLDALLTRRRDGEPIAHLTGVREFWSLPLFVSPATLIPRPDTECLVEQALARLPEQPCRILDLGTGTGAIALALARERPDCEITAVDRMPDAVALAQRNAQHLAIKNIHILQSDWFSALAGQQFAMIVSNPPYIDEQDPHLQQGDVRFEPLTALVAADSGMADIVHIIEQSRNALVSGGFLLLEHGWQQGEAVRQAFILAGYHDVETCRDYGDNERVTLGRYYQ
- protein production: failed

Sequence: MKQIRMLAQYYVDLMMKLGLVRFSMLLALALVVLAIVVQMAVTMVLHGQVESIDVIRSIFFGLLITPWAVYFLSVVVEQLEESRQRLSRLVDKLEEMRERDLKLNVQLKDNIAQLNQEIGEREKAEAERETTLEQLKIEMKEREETQIQLEQQSSFLRSFLDASPDLVFYRNEDKEFSGCNRAMELLTGKSEKQLIHLKPQDVYSEEAAEKVLETDEKVFRHNVSLTYEQWLDYPDGRKACFEIRKVPYYDRVGKRRGLMGFGRDITERKRYQDALERASRDKTTFISTISHELRTPLNGIVGLSRILLDTELTSEQEKYLKTIHVSAVTLGNIFNDIIDMDKMERRKVQLDNQPVDFTSFLADLENLSGLQAQQKGLRFVLEPSLPLPHKVITDGTRLRQILWNLISNAVKFTPQGGGVNVRVRYDEGDILHFEVEDSGIGIPEAEQDKIFAMYYQVKDSHGGKPATGTGIGLAVSRRLARNMGGDISVTSQPGKGATFTLTVHAPAIAEEVEDTLAEDDMPLPALNVLLVEDIELNVIVARSVLEKLGNSVDVAMTGKAALEMFEPGEYDLVLLDIQLPDMTGLDISRELKQRFAADELPPLVALTANVLKNKKEYLDAGMDDVLSKPLSVPALTAMIKKFWDAPDEEAQEAPAADLHKADAVLDTDMLEQYIELVGPKLINDGLAVFEKMMPGYMSVLESNLTARDQKGIVEEGHKIKGAAGSIGLRHIQQLGQQIQTPDLPAWSDNVAEWVEEMKSEWQNDVAVLKAWVAKASKK
- protein production: failed

Sequence: MYAVPILNVYDFEVKKDKETSYKSATEDYVNKTMGVEQGVLGLFAATDERDKTTSYIVEIYNDYLAFSNHTKNQASKDFKAVIPQIAEGNLNSAEIDVQIAKDKKIEQNDNTFAVYTVIDVKPENDKEFAEIIKNIVETTFNEEGTLLVYLGTDRRNFNKWCLFEVYKDIDSYLNHRSAKYFKDYITQTKDMIAGKKRAELQVLKIENKGGLDYKKLY
- protein production: not failed

Sequence: MTIYTLSHGSLKLDVSDQGGVIEGFWRDTTPLLRPGKKSGVATDASCFPLVPFANRVSGNRFVWQGREYQLQPNVEWDAHYLHGDGWLGEWQCVSHSDDSLCLVYEHRSGVYHYRVSQAFHLTADTLTVTLSVTNQGAETLPFGTGWHPYFPLSPQTRIQAQASGYWLEREQWLAGEFCEQLPQELDFNQPAPLPRQWVNNGFAGWNGQARIEQPQEGYAIIMETTPPAPCYFIFVSDPAFDKGYAFDFFCLEPMSHAPDDHHRPEGGDLIALAPGESTTSEMSLRVEWL
- protein production: not failed

Sequence: MAAQVEIEDQESVTNLDNGEIINPISDNAPNFSGDATILLREATFEHNLIKNCFLSGMGSFATETTIVTVRKILTQRLITTKAKFAVFKLFTEAMKRKNNGYANIRYGWYSGSKEEIDRVITYGFSNREIKKVENDVGSHGVGIHLVHHRYSLAAALVGEGDEEGIKNILLCRVILGKPEQIVTGSKQSYPSSNQFDSGVDNLENPRKYVIWSCNMNSYILPTYIVSFKSHLLRGLIGRARSPCVSFSVLMSILSKSLDAARMNLILTSYDDFRKRKLRREQLVRKIREVVGDNLLFKILKNQRR
- protein production: not failed

Sequence: MAREFKRSDRVAQEIQKEIAVILQREVKDPRIGMVTVSDVEVSSDLSYAKIFVTFLFDHDEMAIEQGMKGLEKASPYIRSLLGKAMRLRIVPEIRFIYDQSLVEGMRMSNLVTNVVREDEKKHVEESN
- protein production: not failed

Sequence: MDTTKTIAALFDFDGVIMDTETQYTVFWDEQGRKYLNEEDFGRRIKGQTLTQIYEKYFSDLPEAQQEITAGLNIYEKSMSYEYIPGVEAFIADLRKHGAKIAVVTSSNEEKMQNVYNAHPEFKGMVDRILTGEMFARSKPAPDCFLLGMEIFGATPENSYVFEDSFHGLQAGMTSGATVIGLATTNTREAITGKAHYIIDDFSEMTFEHLLALHR
- protein production: failed
